First the molecules themselves.
B1: glmS ribozyme (parent)
chain: AUAAAAGCGCCAGAACUACAGAAAUGUAGUUGACGAGGAGGAGGUUUAUCGAAUUUUCGGCGGAUGCCUCCAAA

What all share (conditions): with glucosamine-6-phosphate
Variants of B1 are the subject of data set [1]. Nature of the data set: self-cleavage kobs at 40 uM GlcN6P; higher = faster cleavage; RNA array. The gist of the method: (§1)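 Over ~14 h at 37 °C, tiles were imaged as glucosamine-6-phosphate (40 μM to 10 mM) in HEPES/KCl/Mg(OAc)2 buffer flowed across sequenced MiSeq chips. The chips carried barcoded ribozyme variants transcribed in situ by E. coli RNA polymerase and tracked with a hybridised Cy3 probe. After normalisation to baseline and to non-cleaving reference variants, one- or two-exponential decay fits of per-tile medians gave kobs. kcat and KM followed from weighted Michaelis–Menten fits across concentrations.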

Variants of B1 are the subject of data set [2]. Nature of the data set: self-cleavage kobs at 160 uM GlcN6P; higher = faster cleavage; RNA array. A digest of the protocol:
as §1

Variants of B1 are the subject of data set [3]. As to the kind of experiment: self-cleavage kobs at 640 uM GlcN6P; higher = faster cleavage; RNA array. The gist of the method:
as §1

Data set [4] covers variants of B1. As to the kind of experiment: self-cleavage kobs at 2500 uM GlcN6P; higher = faster cleavage; RNA array. The gist of the method:
as §1

In data set [5] the parent is B1. As to the kind of experiment: self-cleavage kobs at 10000 uM GlcN6P; higher = faster cleavage; RNA array. The gist of the method:
as §1

This note sets out measurements from the supplement of paper PMC7125110.

± gives the standard error. Fewer inactive variants are shown than the library holds.

As for G7A G35A A53C, in the data set with glucosamine-6-phosphate [1], the “self-cleavage kobs at 40 uM GlcN6P” value is under 1e-05 s⁻¹. The “self-cleavage kobs at 160 uM GlcN6P” value with glucosamine-6-phosphate [2] is under 1e-05 s⁻¹. In the data set with glucosamine-6-phosphate [3], the “self-cleavage kobs at 640 uM GlcN6P” value was under 1e-05 s⁻¹. The “self-cleavage kobs at 2500 uM GlcN6P” value with glucosamine-6-phosphate [4] was under 1e-05 s⁻¹.
On to C61A A64C C71A, for which, in the data set with glucosamine-6-phosphate [1], the “self-cleavage kobs at 40 uM GlcN6P” value was under 1e-05 s⁻¹. Moreover, the “self-cleavage kobs at 10000 uM GlcN6P” value with glucosamine-6-phosphate [5] is under 1e-05 s⁻¹.
For C16G U56A C71U, the “self-cleavage kobs at 40 uM GlcN6P” value in the data set with glucosamine-6-phosphate [1] worked out at 0.000174 ± 5.5e-05 s⁻¹.
C61G A64U C68A: the “self-cleavage kobs at 40 uM GlcN6P” value with glucosamine-6-phosphate [1] was under 1e-05 s⁻¹.
As for C10G U57G, the “self-cleavage kobs at 40 uM GlcN6P” value with glucosamine-6-phosphate [1] is under 1e-05 s⁻¹. Also, the “self-cleavage kobs at 640 uM GlcN6P” value in the data set with glucosamine-6-phosphate [3] was under 1e-05 s⁻¹. For the same variant, the “self-cleavage kobs at 2500 uM GlcN6P” value with glucosamine-6-phosphate [4] was under 1e-05 s⁻¹. Also, the “self-cleavage kobs at 10000 uM GlcN6P” value with glucosamine-6-phosphate [5] was under 1e-05 s⁻¹.
In the case of A42C C71G, the “self-cleavage kobs at 40 uM GlcN6P” value with glucosamine-6-phosphate [1] was under 1e-05 s⁻¹. Moreover, in the data set with glucosamine-6-phosphate [2], the “self-cleavage kobs at 160 uM GlcN6P” value was under 1e-05 s⁻¹. Further, the “self-cleavage kobs at 640 uM GlcN6P” value in the data set with glucosamine-6-phosphate [3] is under 1e-05 s⁻¹. In the data set with glucosamine-6-phosphate [4], the “self-cleavage kobs at 2500 uM GlcN6P” value is under 1e-05 s⁻¹. In the data set with glucosamine-6-phosphate [5], the “self-cleavage kobs at 10000 uM GlcN6P” value was under 1e-05 s⁻¹.
For the variant C10A C11A, the “self-cleavage kobs at 40 uM GlcN6P” value in the data set with glucosamine-6-phosphate [1] is under 1e-05 s⁻¹. In addition, in the data set with glucosamine-6-phosphate [3], the “self-cleavage kobs at 640 uM GlcN6P” value is under 1e-05 s⁻¹. Besides, in the data set with glucosamine-6-phosphate [5], the “self-cleavage kobs at 10000 uM GlcN6P” value was under 1e-05 s⁻¹.
As for G37C G60U C70U, the “self-cleavage kobs at 160 uM GlcN6P” value with glucosamine-6-phosphate [2] is under 1e-05 s⁻¹.
In the case of G38A U46G A52U, the “self-cleavage kobs at 40 uM GlcN6P” value with glucosamine-6-phosphate [1] is under 1e-05 s⁻¹.
Consider C10G G32C A48U, for which the “self-cleavage kobs at 40 uM GlcN6P” value with glucosamine-6-phosphate [1] was under 1e-05 s⁻¹. Also, the “self-cleavage kobs at 10000 uM GlcN6P” value with glucosamine-6-phosphate [5] was under 1e-05 s⁻¹.
For G51C U69C, the “self-cleavage kobs at 40 uM GlcN6P” value with glucosamine-6-phosphate [1] was under 1e-05 s⁻¹. Further, the “self-cleavage kobs at 2500 uM GlcN6P” value with glucosamine-6-phosphate [4] was under 1e-05 s⁻¹. Also, in the data set with glucosamine-6-phosphate [5], the “self-cleavage kobs at 10000 uM GlcN6P” value is under 1e-05 s⁻¹.
In the case of G43U A48G C70G, the “self-cleavage kobs at 40 uM GlcN6P” value with glucosamine-6-phosphate [1] was under 1e-05 s⁻¹. In addition, in the data set with glucosamine-6-phosphate [5], the “self-cleavage kobs at 10000 uM GlcN6P” value is under 1e-05 s⁻¹.
Regarding A6U G7C, the “self-cleavage kobs at 40 uM GlcN6P” value with glucosamine-6-phosphate [1] was under 1e-05 s⁻¹. Also, in the data set with glucosamine-6-phosphate [3], the “self-cleavage kobs at 640 uM GlcN6P” value was under 1e-05 s⁻¹. Moreover, in the data set with glucosamine-6-phosphate [4], the “self-cleavage kobs at 2500 uM GlcN6P” value is under 1e-05 s⁻¹. In addition, the “self-cleavage kobs at 10000 uM GlcN6P” value with glucosamine-6-phosphate [5] is under 1e-05 s⁻¹.
With C16U A36U A64G, the “self-cleavage kobs at 40 uM GlcN6P” value in the data set with glucosamine-6-phosphate [1] was under 1e-05 s⁻¹.
G9A G44C: the “self-cleavage kobs at 40 uM GlcN6P” value in the data set with glucosamine-6-phosphate [1] was under 1e-05 s⁻¹. Moreover, the “self-cleavage kobs at 640 uM GlcN6P” value with glucosamine-6-phosphate [3] was under 1e-05 s⁻¹. For the same variant, in the data set with glucosamine-6-phosphate [4], the “self-cleavage kobs at 2500 uM GlcN6P” value is under 1e-05 s⁻¹.
A36C G37A G59C C71U: the “self-cleavage kobs at 40 uM GlcN6P” value with glucosamine-6-phosphate [1] was under 1e-05 s⁻¹. Besides, the “self-cleavage kobs at 2500 uM GlcN6P” value in the data set with glucosamine-6-phosphate [4] is under 1e-05 s⁻¹. Also, the “self-cleavage kobs at 10000 uM GlcN6P” value with glucosamine-6-phosphate [5] is under 1e-05 s⁻¹.
Regarding C58A G60U C61U C71A, in the data set with glucosamine-6-phosphate [2], the “self-cleavage kobs at 160 uM GlcN6P” value was under 1e-05 s⁻¹. Moreover, in the data set with glucosamine-6-phosphate [4], the “self-cleavage kobs at 2500 uM GlcN6P” value was under 1e-05 s⁻¹.
Consider C11A C61U C70U, for which the “self-cleavage kobs at 40 uM GlcN6P” value with glucosamine-6-phosphate [1] is under 1e-05 s⁻¹. For the same variant, the “self-cleavage kobs at 10000 uM GlcN6P” value in the data set with glucosamine-6-phosphate [5] was under 1e-05 s⁻¹.
For G7A G32U G43C, the “self-cleavage kobs at 160 uM GlcN6P” value with glucosamine-6-phosphate [2] is under 1e-05 s⁻¹. Moreover, the “self-cleavage kobs at 640 uM GlcN6P” value in the data set with glucosamine-6-phosphate [3] is under 1e-05 s⁻¹.
As for G7C A12G, in the data set with glucosamine-6-phosphate [1], the “self-cleavage kobs at 40 uM GlcN6P” value is under 1e-05 s⁻¹. Also, the “self-cleavage kobs at 2500 uM GlcN6P” value in the data set with glucosamine-6-phosphate [4] is under 1e-05 s⁻¹. The “self-cleavage kobs at 10000 uM GlcN6P” value with glucosamine-6-phosphate [5] was under 1e-05 s⁻¹.
For the variant A15G U49C, the “self-cleavage kobs at 40 uM GlcN6P” value in the data set with glucosamine-6-phosphate [1] is under 1e-05 s⁻¹. Further, the “self-cleavage kobs at 640 uM GlcN6P” value with glucosamine-6-phosphate [3] is under 1e-05 s⁻¹.
Take A33C U49C C50U: the “self-cleavage kobs at 40 uM GlcN6P” value in the data set with glucosamine-6-phosphate [1] was under 1e-05 s⁻¹. The “self-cleavage kobs at 10000 uM GlcN6P” value in the data set with glucosamine-6-phosphate [5] is under 1e-05 s⁻¹.
As to G9U C34U, the “self-cleavage kobs at 40 uM GlcN6P” value in the data set with glucosamine-6-phosphate [1] is under 1e-05 s⁻¹. Moreover, the “self-cleavage kobs at 640 uM GlcN6P” value in the data set with glucosamine-6-phosphate [3] is under 1e-05 s⁻¹. In the data set with glucosamine-6-phosphate [4], the “self-cleavage kobs at 2500 uM GlcN6P” value was under 1e-05 s⁻¹. For the same variant, the “self-cleavage kobs at 10000 uM GlcN6P” value with glucosamine-6-phosphate [5] is under 1e-05 s⁻¹.
Turning to A12G A36G, in the data set with glucosamine-6-phosphate [1], the “self-cleavage kobs at 40 uM GlcN6P” value is under 1e-05 s⁻¹. Besides, the “self-cleavage kobs at 160 uM GlcN6P” value with glucosamine-6-phosphate [2] was under 1e-05 s⁻¹. Besides, the “self-cleavage kobs at 640 uM GlcN6P” value in the data set with glucosamine-6-phosphate [3] is under 1e-05 s⁻¹. The “self-cleavage kobs at 10000 uM GlcN6P” value with glucosamine-6-phosphate [5] was under 1e-05 s⁻¹.
As to A12G G51U G66A, in the data set with glucosamine-6-phosphate [2], the “self-cleavage kobs at 160 uM GlcN6P” value was under 1e-05 s⁻¹. In addition, the “self-cleavage kobs at 2500 uM GlcN6P” value in the data set with glucosamine-6-phosphate [4] is under 1e-05 s⁻¹.
Consider G7U A12G G32U, for which the “self-cleavage kobs at 160 uM GlcN6P” value with glucosamine-6-phosphate [2] was under 1e-05 s⁻¹.
